Reference: the DeepSol protein solubility set

Assay: soluble on expression in E. coli; label from the status in PepcDB or PDB records

Sequence	soluble on expression in E. coli
MSLPVFSFEEPTGPHRVGTKLYHWVDHQRNEPYSKNPNDRRELMVQIWYPAAEKSKGDPEPYIRNINELSKGLEKTLSIPAFAFSHMELVKSHSFMDLQLSDSENHYPILLFSHGFNGFRNQNTFQVEELASQGYIVLSIDHTFDAAATVFPGGRTAYVQPINLTDEGDSHIKLWEEDVSFVLNQIEKLNENDETGFFTGRLDTSRIGMFGHSYGGATAAQILAKDSRVKAAINMDGTLYGEILPESGIGKPFLLMNAEEPDEADPFEVRERYGRGLAGGGMSMVIPHTDHTSFTDLHLFSPLLQSPGENPKEVHRIINEFSLAFFDQYVKQKDDGSTLKRLITQYPEVNFKINREGHHHHHH	soluble
MSLQEGQNRKTSSLSILAIAGVEPYQEKPGEEYMNEAQLSHFKRILEAWRNQLRDEVDRTVTHMQDEAANFPDPVDRAAQEEEFSLELRNRDRERKLIKKIEKTLKKVEDEDFGYCESCGVEIGIRRLEARPTADLCIDCKTLAEIREKQMAGEGGSHHHHHH	soluble
MSLQMKNYQQTLKRMSDRSSGFLGVGVHKQKLGIGAIAIVVTDKDGEIVDCEMMSGVTVFSRFKPLTDFVGMSLNECKVLLQNESVDIALHGALKKIEEQMNRKENVTTEGHHHHHH	not soluble
MSLQPVPDAGPWGDYLCDSPWALINSSIYAMKEIEPEPDFILWTGDDTPHVPDEKLGEAAVLEIVERLTKLIREVFPDTKVYAALGNHDFHPKNQFPAGSNNIYNQIAELWKPWLSNESIALFKKGAFYCEKLPGPSGAGRIVVLNTNLYYTSNALTADMADPGQQFQWLEDVLTDASKAGDMVYIVGHVPPGFFEKTQNKAWFREGFNEKYLKVVRKHHRVIAGQFFGHHHTDSFRMLYDDAGVPISAMFITPGVTPWKTTLPGVVNGANNPAIRVFEYDRATLSLKEGHHHHHH	not soluble
MSLQQSPSTSRPQLGIGLIGTGFMGRAHALAFGSANAALELPARIHLAALADADSARAEQCAQAWGFDRSHADWQQLVEDPRVQIVAITTPNHLHFPMAMAAIAAGKAVYCEKPLAVSLAQADEMQRSAKAAGVVTQVGYNYQHNPMIGLAREMIEAGELGDIVSFQGEFSEDFMGSATSPWSWRCEAAHAGGALADLGSHLLAMARYLLGDIEAVCADANTVHSQRPASPGSNEMRAIAVDDQTHALLRFASGARGTFSSSWLKHGYKNHLSFEISGTQGTLTYDQERLNELRIYRPGAPGRDGFQRLLAGPAQPGYAAFCPAPGHQLGYNELKALEVQALILAVCGQGSRGPDFEEAWQIERLATAIRLAAHEQRWVALDDEGHHHHHH	soluble
MSLQRPKVKGMDQTLATSRKTSNACNVLALCTRDNPAILTIAHRGFWTATAENSLASVRAAVAAGVEMIEIDTQATADGRLVVIHDETLDRTTTGKGTVSALPFEVVRAAKLKAGAGGDGADVTDECVPTLEEVLEEARGRITVNIDTKFTRDLPQVMETVLRLGVEDQVLVKTDVDPEAERFEVLGSHWFGRIPHMPMFPVRKGKFAEDLRRIEALKAPMIEVKFTDIADLAEGRAEMERQNIRLWINSLDVSHCLDFNDTRALSNPEAVWGALAEAGTGAIQTDEVEAFTAWLKAGAGETGRAWTREGHHHHHH	soluble
MSLQRPLGNHHDGPDTLLVTSDATQTELVTAETEKLRELITRARFVLFDFDGPICRLFAGHKAERVAVELVEWLEGRGLHALLSETEREALDPHIVLRAVDRRHPGSDLVAELEERLTKQELRAASSAMPTAYADPLIRTWTAVGARLAIATNNSPRVARKYVASRGLSACFAPHIYGRTQDLHLLKPDPHCLNRALNAMGAAPSASLMIGDTPSDYFAAQRAGVPFLGYARNDRKEKLLKEAGAEEIVGSLELVLRVLREQSASAREGHHHHHH	soluble
MSLQSSVASGLSLNPEQLAVMAVGSGGVVVSLSAPAETVIVIVEHLDHKEEVIVQGREIVPSMDGHFDTIQELNSRFTESAPREKIEIGNRERPFKLHVVNVGDSRAMLVTRESYAALTRDHVPDDPGELRRIQETGDEGKKDNPSPSPITAKPDVRYFYATWEDVLILHSDGLLAESDRWEEVAGAALQCMESEPRIRGVATCLVQQAYRRGSTDNITALVSTFQKPSLNEGHHHHHH	soluble
MSLQSSVKTERQYLSGRGCDDMVQWDFMCTGGNNSGKWTKIGVPSCWELQGFGTYQYGMKFYGKAFPEGVADEQGLYKYEFELPAEWNGKQIELVFEGSMTDTQVKINGRKAGSMHQGAFYRFIYNVSDRVFFGSKKKNVLEVTVSKESANAGVNLAERRADYWNFGGIFRPVFIVAKPAQNIDRLVIDAKADGNFYADCFLNMAVEGARVHTVITDAKGKKVAENTSDVRTGSDHASINFAVKSPELWTAETPAMYQATFTLLDKAGKTLHVENQKFGFRTIETRESDGLYINGRRVMIKGVNRHSFRPESGRTLSKAKNIEDVLLIKSMNMNAVRLSHYPADPEFFEACDSLGLYVMDELSGWHGKHETINGQKLVKEMITRDVNHPCIIWWSNGNEKGWNTELDGEFHKYDPQKRPVLHPQGNFSGYETMHYRSYGESQNYMRLPEIFMPTEFLHGLYDGGHGAGLYDYWEMMRKHPRCAGGFLWVLADEGVKRVDMNGFIDNCGNYGADGIVGPHHEKEGSYFTIKQVWCPIQIMTDSLDSQFDGKLKIENRYDFLNANTCRFTYKYVQLPSVTDKGGMKVMKQGEVNCPDIPAHGAGTLTIPAAVKGANALMLTVTDKQGNDLFTWSYKLDDVAGLQQVSAGNKPSYKETADALTVDAEGRTFTFSQKDGQLKGVKVGSRIISLANGPRFIAAKRSDRSMDQFYNHDDKEAEKKKTQYTTFDDAGRFTGFTVREEGNNVVVTANYKLGCFDQAVWTIAPDGTAAIDFTYNFSGVVDLMGVMFDYPEDKVLSKRWVGDGPYRVWQNRLHGPQLGVWENEYNDPIPAESFTYPEFKGYFANVQWMTLKTQEGTISICNRTPQNYVGVYQPRDGRDGLLYTFPATGISLMKVIPPVRNKVNTTDLIGPSSQAFWADGAYGGGITLKFEEGHHHHHH	soluble
MSLQTDDPMIVAHRAGTRDFPENTVLAITNAVAAGVDGMWLTVQVSSDGVPVLYRPSDLATLTDGAGPVNSKTVQQLQQLNAGWNFTTPGVEGHPYRQRATPIPTLEQAIGATPPDMTLFLDLKQTPPQPLVSAVAQVLTRTGAAGRSIVYSTNADITAAASRQEGLQVAESRDVTRQRLFNMALNHHCDPQPDPGKWAGFELHRDVTVTEEFTLGSGISAVNAELWDEASVDCFRSQSGMKVMGFAVKTVDDYRLAHKIGLDAVLVDSPLAAQQWRHEGHHHHHH	not soluble
MSLQTQLVHELVENQPTKLLIYVKNIRTIRTKKGEQMAFVDGDDTTGSISLTLFPTVFRQLRQSVEKGQVYYVEGKVERSTYNQELQILVQRIEKAQQVETSISDETCFIRITKDVEQTDVFQKMKEVLSRHAGHIPVIVYFEKTGKKIVLNEENWVAHTSASQQQLAYVLGEQNVIFKEGHHHHHH	soluble
MSLRAIGLSNQVQHLKETVIAVEKKSKHKKTDDSLDISRIQYYMNNFVYYYINYSQDTADQRKTELENYYSFSTASMTDDVRKSRTLQTQRLISVEKEKDYYIALMRIGYEVDKKSYQMNLAVPFQMQRGLLAIVSQPYTVAEDLYLGKSKAFEKKTLDQVKELSKEQVSSIQKFLPVFFNKYALINKTDLKLLMKTPELMGKGFKVSELDLNNAIYYQEKKHQVVQLSVTFEDLVTGGTRSENFTLYLFKADNGWYVEEMYHYFKEGHHHHHH	soluble
MSLRAKVTTKKYSVCEAPKVSEEELLSALVDRHKGKVQFIDFWATWCGGCRRTIKEYEPIKKELGENVAFVYLTGPSSIEKTWKILIQDIVGEHYWLNEKQWGYLWKHFQMKGLPMYLVIDKQGNIVKRFTHVTRKELEELLKQEINKEGHHHHHH	soluble
MSLREINMLRNISSCLFPHISTITSPNHYLSEWDDWEKQGLPEEQRTEAVRRLRACLTSKGHKLDLRALALSSLPVLPACIKKLDVSCNKLTILTDLPENIKELIARDNFLTHISALPHYLITLDVSENQLENLPLLPDTIKSLSAEYNRLSTLPSLPLNLKKLEVRNNELQTLPSLPSNLKILKVAHNHLTELPPLPRRLQLLFAYSNRLSNLPNIQENIIMRRFFYFENNQITTIPTNLFRLDPHITIEIANNPLSDQTLLFLIQQTSVPNFNGPQFRISLSDEGHHHHHH	soluble
